Results published in PMC9894594, “Progressive Acceleration of Insulin Exposure Over 7 Days of Infusion Set Wear” (Diabetes Technology & Therapeutics, 2023).

Columns and labels:
Assay type in all cases: in vivo, human (participants with type 1 diabetes mellitus)
[1] = Euglycemic clamp pharmacodynamics (glucose infusion rate) after insulin lispro pump bolus; set-up: t50% (GIR, early) (time to reach 50% GIRmax before peak) / t50% (GIR, late) (time to reach 50% GIRmax after peak): unit: min; conditions: 0.15 U/kg SC bolus by pump, euglycemic clamp 300 min, median (25th–75th)
From the text: (§1) We performed a prospectively enrolled randomized sequence two-way crossover study of the investigational CBX (Capillary Biomedical, Inc., Irvine, CA) and a commercial angled Teflon (MiniMed™ Silhouette™; Medtronic Diabetes Care, Northridge, CA; indicated for 3-day use) IIS for two weeklong home use periods with four in-patient euglycemic clamp sessions during each of the 7-day periods. Between the two periods, there was a wash out of 14 days (Supplementary Fig. S1).
(§2) Euglycemic clamp experiments were performed at AMCR Institute (in Escondido, CA.) on days 0, 3, 5, and 7 in each treatment period (eight clamps per participant). Participants were admitted to AMCR the evening before the clamp study and glucose was stabilized overnight with intravenous (IV) insulin or glucose as needed. Personal pumps were set to 0.1 U/h overnight and throughout the clamp experiment. Once glucose was stable (95 ± 15 mg/dL) in the morning, IV insulin was stopped 20 min before administering a bolus of 0.15 U/kg of insulin lispro (Eli Lilly, Indianapolis, IN) by pump. Glucose was clamped at 95 ± 15 mg/dL for 300 min or terminated early if runaway hyperglycemia occurred.
(§3) PK parameters (area under the insulin concentration curve [AUC] over the first 60 or 300 min, respectively; time to maximum insulin concentration [tmax]; maximum insulin concentration [Cmax]; time to half-maximum insulin concentration, early and late [t50%], and mean residence time [MRT]) were tested for treatment effects. […] Estimated means were then back transformed and the ratio between treatments/days (equality means a ratio of 1) tested for significance using mixed model for repeated measures (two-sided, α = 0.05). For simplicity reasons, all data are presented as median (25th–75th percentiles) or mean ± standard deviation.

[2] = Adverse events during the crossover clamp study; conditions: both IIS types
From the text: as §1
WCG IRB approved the protocol and all associated documents used by participants before initiation of the study (Study No. 1283383) and during the study were registered in clinicaltrials.gov (NCT04398030). Participants aged 18–70 years, diagnosed with type 1 diabetes mellitus, and using rapid-acting insulin analog delivered through a Medtronic MiniMed insulin pump (model 530 or higher; Medtronic Diabetes Care) for at least 6 months were enrolled.

[3] = Insulin lispro pharmacokinetics after pump bolus during euglycemic clamp over 7 days of infusion set wear; conditions: for decline of median total insulin exposure (AUC0–300) from days 0 to 7: n.s.; for AUC0–300 (area under the insulin concentration curve, 0 to 300 min) / Cmax (maximum insulin concentration) / MRT (mean residence time) / t50% (early) (time to reach 50% of Cmax before peak) / t50% (late) (time to reach 50% of Cmax after peak) / tmax (time to maximum insulin concentration): 0.15 U/kg SC bolus by pump, plasma ELISA, median (25th–75th)
From the text: as §1, §2
Per participant and clamp, 30 plasma samples were collected in regular intervals and stored at −70°C. Samples were analyzed elsewhere (Northern Lights Mercodia Lispro ELISA, Mercodia AB, Uppsala, Sweden; lowest limit of quantification (LLOQ) = 1.0 mU/L, 94% accuracy[7]). Owing to the small sample size and the intrinsically greater variability in pharmacodynamic measures, the PK results are the only results detailed in this report.
as §3

[4] = day 0 of IIS wear, CBX IIS, n = 6
[5] = day 0 of IIS wear, Control IIS, n = 6
[6] = day 3 of IIS wear, CBX IIS, n = 6
[7] = day 3 of IIS wear, Control IIS, n = 6
[8] = day 5 of IIS wear, CBX IIS, n = 6
[9] = day 5 of IIS wear, Control IIS, n = 6
[10] = day 7 of IIS wear, CBX IIS, n = 5
[11] = day 7 of IIS wear, Control IIS, n = 5

insulin lispro
AUC0–300(GIR) (area under the GIR curve from 0 to 300 min) [1, 4]: 1205 (642.1–1219) mg/kg
GIRmax (maximum glucose infusion rate) [1, 4]: 8.4 (4.5–9.1) mg/(kg·min)
Onset of action [1, 4]: 28.9 (21.4–39.0) min
t50% (GIR, early) (time to reach 50% GIRmax before peak) [1, 4]: 48.7 (25.7–63.5)
t50% (GIR, late) (time to reach 50% GIRmax after peak) [1, 4]: 187.4 (160.4–234.3)
tmax(GIR) (time to reach GIRmax) [1, 4]: 140.0 (80.0–170.0) min
AUC0–300(GIR) (area under the GIR curve from 0 to 300 min) [1, 5]: 1330 (790.6–1539) mg/kg
GIRmax (maximum glucose infusion rate) [1, 5]: 10.2 (7.7–11.7) mg/(kg·min)
Onset of action [1, 5]: 76.1 (56.6–106.4) min
t50% (GIR, early) (time to reach 50% GIRmax before peak) [1, 5]: 67.6 (43.0–93.5)
t50% (GIR, late) (time to reach 50% GIRmax after peak) [1, 5]: 182.6 (164.3–247.3)
tmax(GIR) (time to reach GIRmax) [1, 5]: 145.0 (90.0–190.0) min
AUC0–300(GIR) (area under the GIR curve from 0 to 300 min) [1, 6]: 719.6 (652.3–864.3) mg/kg
GIRmax (maximum glucose infusion rate) [1, 6]: 7.41 (5.7–9.5) mg/(kg·min)
Onset of action [1, 6]: 28.2 (12.1–34.0) min
t50% (GIR, early) (time to reach 50% GIRmax before peak) [1, 6]: 49.0 (37.7–95.0)
t50% (GIR, late) (time to reach 50% GIRmax after peak) [1, 6]: 157.6 (97.5–179.0)
tmax(GIR) (time to reach GIRmax) [1, 6]: 65.00 (60.0–120.0) min
AUC0–300(GIR) (area under the GIR curve from 0 to 300 min) [1, 7]: 743.1 (585.5–1268) mg/kg
GIRmax (maximum glucose infusion rate) [1, 7]: 5.2 (5.0–13.5) mg/(kg·min)
Onset of action [1, 7]: 35.4 (29.0–41.4) min
t50% (GIR, early) (time to reach 50% GIRmax before peak) [1, 7]: 51.3 (44.9–55.6)
t50% (GIR, late) (time to reach 50% GIRmax after peak) [1, 7]: 147.8 (88.3–177.7)
tmax(GIR) (time to reach GIRmax) [1, 7]: 82.0 (60.0–110.0) min
AUC0–300(GIR) (area under the GIR curve from 0 to 300 min) [1, 8]: 663.5 (609.8–1332) mg/kg
GIRmax (maximum glucose infusion rate) [1, 8]: 8.1 (6.5–10.9) mg/(kg·min)
Onset of action [1, 8]: 21.1 (18.4–23.8) min
t50% (GIR, early) (time to reach 50% GIRmax before peak) [1, 8]: 33.3 (28.7–37.0)
t50% (GIR, late) (time to reach 50% GIRmax after peak) [1, 8]: 92.6 (77.1–147.0)
tmax(GIR) (time to reach GIRmax) [1, 8]: 62.5 (50.0–70.0) min
AUC0–300(GIR) (area under the GIR curve from 0 to 300 min) [1, 9]: 695.2 (585.4–1395) mg/kg
GIRmax (maximum glucose infusion rate) [1, 9]: 9.1 (7.3–10.8) mg/(kg·min)
Onset of action [1, 9]: 20.0 (16.4–23.0) min
t50% (GIR, early) (time to reach 50% GIRmax before peak) [1, 9]: 38.8 (30.6–39.1)
t50% (GIR, late) (time to reach 50% GIRmax after peak) [1, 9]: 106.8 (95.4–140.2)
tmax(GIR) (time to reach GIRmax) [1, 9]: 59.0 (55.0–60.0) min
AUC0–300(GIR) (area under the GIR curve from 0 to 300 min) [1, 10]: 883.0 (380.6–908.4) mg/kg
GIRmax (maximum glucose infusion rate) [1, 10]: 10.1 (4.9–11.3) mg/(kg·min)
Onset of action [1, 10]: 18.8 (16.2–27.0) min
t50% (GIR, early) (time to reach 50% GIRmax before peak) [1, 10]: 32.2 (28.0–36.0)
t50% (GIR, late) (time to reach 50% GIRmax after peak) [1, 10]: 107.5 (105.9–117.8)
tmax(GIR) (time to reach GIRmax) [1, 10]: 55.0 (50.0–55.0) min
AUC0–300(GIR) (area under the GIR curve from 0 to 300 min) [1, 11]: 687.7 (386.7–1039) mg/kg
GIRmax (maximum glucose infusion rate) [1, 11]: 9.2 (6.9–11.5) mg/(kg·min)
Onset of action [1, 11]: 27.5 (14.6–32.0) min
t50% (GIR, early) (time to reach 50% GIRmax before peak) [1, 11]: 48.1 (23.2–48.1)
t50% (GIR, late) (time to reach 50% GIRmax after peak) [1, 11]: 96.7 (87.1–109.5)
tmax(GIR) (time to reach GIRmax) [1, 11]: 70.0 (60.0–70.0) min
severe or serious adverse events [2]: No severe or serious adverse events
acceleration of median tmax by day 7 vs day 0 ([3]; CBX group): 61%
decrease of median MRT from day 0 to day 7 ([3]; CBX group): 42%
increase of median early exposure (AUC0–60) by day 7 vs day 0 ([3]; CBX group): 59%
decline of median total insulin exposure (AUC0–300) from days 0 to 7 ([3]; CBX group): 22%
acceleration of median tmax by day 7 vs day 0 ([3]; Control group): 63%
increase of median early exposure (AUC0–60) by day 7 vs day 0 ([3]; Control group): 34%
decline of median total insulin exposure (AUC0–300) from days 0 to 7 ([3]; Control group): 26%
AUC0–300 (area under the insulin concentration curve, 0 to 300 min) [3, 4]: 8562 (6576–11416) mU/(min·L)
Cmax (maximum insulin concentration) [3, 4]: 60.4 (33.5–73.6) mU/L
MRT (mean residence time) [3, 4]: 129.5 (117.1–137.5) min
t50% (early) (time to reach 50% of Cmax before peak) [3, 4]: 23.3 (11.8–34.1) min
t50% (late) (time to reach 50% of Cmax after peak) [3, 4]: 163.1 (157.3–181.8) min
tmax (time to maximum insulin concentration) [3, 4]: 65.0 (50.0–90.0) min
AUC0–300 (area under the insulin concentration curve, 0 to 300 min) [3, 5]: 8894 (7599–9870) mU/(min·L)
Cmax (maximum insulin concentration) [3, 5]: 61.9 (45.0–82.5) mU/L
MRT (mean residence time) [3, 5]: 118.0 (97.9–131.0) min
t50% (early) (time to reach 50% of Cmax before peak) [3, 5]: 27.4 (19.8–32.7) min
t50% (late) (time to reach 50% of Cmax after peak) [3, 5]: 156.5 (121.2–174.5) min
tmax (time to maximum insulin concentration) [3, 5]: 67.5 (45.0–80.0) min
AUC0–300 (area under the insulin concentration curve, 0 to 300 min) [3, 6]: 8281 (7176–10737) mU/(min·L)
Cmax (maximum insulin concentration) [3, 6]: 69.0 (56.2–71.5) mU/L
MRT (mean residence time) [3, 6]: 114.4 (105.9–116.9) min
t50% (early) (time to reach 50% of Cmax before peak) [3, 6]: 18.0 (11.2–19.2) min
t50% (late) (time to reach 50% of Cmax after peak) [3, 6]: 135.4 (120.4–150.0) min
tmax (time to maximum insulin concentration) [3, 6]: 42.5 (35.0–45.0) min
AUC0–300 (area under the insulin concentration curve, 0 to 300 min) [3, 7]: 7434 (6600–8282) mU/(min·L)
Cmax (maximum insulin concentration) [3, 7]: 60.2 (56.2–69.7) mU/L
MRT (mean residence time) [3, 7]: 112.4 (104.1–124.3) min
t50% (early) (time to reach 50% of Cmax before peak) [3, 7]: 15.7 (12.2–25.6) min
t50% (late) (time to reach 50% of Cmax after peak) [3, 7]: 119.3 (98.8–152.7) min
tmax (time to maximum insulin concentration) [3, 7]: 32.5 (25.0–50.0) min
AUC0–300 (area under the insulin concentration curve, 0 to 300 min) [3, 8]: 8175 (7194–8538) mU/(min·L)
Cmax (maximum insulin concentration) [3, 8]: 93.6 (73.9–104.4) mU/L
MRT (mean residence time) [3, 8]: 89.0 (76.9–91.7) min
t50% (early) (time to reach 50% of Cmax before peak) [3, 8]: 12.4 (10.3–14.2) min
t50% (late) (time to reach 50% of Cmax after peak) [3, 8]: 74.8 (66.7–76.2) min
tmax (time to maximum insulin concentration) [3, 8]: 25.0 (25.0–30.0) min
AUC0–300 (area under the insulin concentration curve, 0 to 300 min) [3, 9]: 7253 (5949–7625) mU/(min·L)
Cmax (maximum insulin concentration) [3, 9]: 72.6 (54.1–91.0) mU/L
MRT (mean residence time) [3, 9]: 88.7 (85.7–110.5) min
t50% (early) (time to reach 50% of Cmax before peak) [3, 9]: 11.5 (8.2–13.1) min
t50% (late) (time to reach 50% of Cmax after peak) [3, 9]: 69.3 (68.2–88.3) min
tmax (time to maximum insulin concentration) [3, 9]: 25.0 (25.0–30.0) min
AUC0–300 (area under the insulin concentration curve, 0 to 300 min) [3, 10]: 6684 (6402–8342) mU/(min·L)
Cmax (maximum insulin concentration) [3, 10]: 92.3 (78.4–101.5) mU/L
MRT (mean residence time) [3, 10]: 75.7 (66.7–87.0) min
t50% (early) (time to reach 50% of Cmax before peak) [3, 10]: 11.6 (9.5–14.2) min
t50% (late) (time to reach 50% of Cmax after peak) [3, 10]: 62.5 (60.7–68.8) min
tmax (time to maximum insulin concentration) [3, 10]: 25.0 (25.0–25.0) min
AUC0–300 (area under the insulin concentration curve, 0 to 300 min) [3, 11]: 6603 (5822–6773) mU/(min·L)
Cmax (maximum insulin concentration) [3, 11]: 80.9 (79.0–84.0) mU/L
MRT (mean residence time) [3, 11]: 75.4 (62.2–98.6) min
t50% (early) (time to reach 50% of Cmax before peak) [3, 11]: 12.3 (11.5–16.4) min
t50% (late) (time to reach 50% of Cmax after peak) [3, 11]: 63.5 (57.5–77.9) min
tmax (time to maximum insulin concentration) [3, 11]: 25.0 (20.0–30.0) min
decline of AUC0–300 from days 0 to 7 ([3]; pooled data from both IIS groups, 0.15 U/kg bolus): ~24%
